Tested on: ABD-B homeodomain (ABD-B HD) (Drosophila)
Experiment: EMSA

**Q.** How did the Kd turn out when abd-A probe was run?
**A.** 5.48 nM

Reference: PMC4163903
